Source: patent US20120219498A1 (RAMOT AT TEL AVIV UNIVERSITY, published 2012)

B1: ADOPep1 (peptide)
peptide: HWRRAHLLPRLP
notes: Unlabelled synthetic peptide (SynPep); also called non-biotinylated ADOPep1

How the values were obtained:
[1] = target: T1, glucose-regulated protein (GRP78) (Homo sapiens, UniProt P11021 19-654); assay: cell ELISA on endothelial cells, peptide 2 hours, then competitor anti-GRP78 antibody at 2 ug/ml
T1 construct: Endogenous GRP78: on the membrane of human umbilical vein endothelial cells (HUVEC) or tumor cell lines in FACS and cell ELISA; from HUVEC lysate in the immunoprecipitation and Western blot experiments; also called GRP78 receptor; ADOPeps receptor
Method: Endothelial cells were incubated for 2 hours with increasing concentrations of ADOPeps, following which the cells were incubated for another 1 hour with the 2 μg/ml of anti-GRP78 antibody and the amount of bound antibody on EC was detected using an ELISA reader.
Endothelial cells (20,000 per well) were seeded in 96 well plates for 24 hours in the presence of the complete medium. Plates were washed with PBS over night and rehydrated with PBS, 0.1% Na Azide and 5% FCS. ADOPep1, ADOPep2 and ADOPep3 were added to washed plates for 2 hours at room temperature at concentrations of 0.01, 0.1 and 1 microgram per ml. Anti-GRP78 antibody (goat polyclona IgG, Santa Cruz Biotechnology, Calif., USA) was added to the plates for 1 hour at room temperature at a concentration of 2 micrograms/ml per well. After washing, bound anti-GRP78 antibody was detected by incubation with anti-goat IgG Peroxidase conjugated (Jackson Immuneresearch Laboratories, PA, USA). After 5 washes with PBS-0.1% Tween 20, 100 μl/well of TMB+ Substrate-Chromogen (DAKOCytomation, CA, USA) was added for a maximum of 30 minutes. Reaction was stopped with 1N HCl. Color developed was determined by an ELISA reader at 450 nm.

[2] = target: T1, glucose-regulated protein (GRP78); assay: endothelial cells, normoxia, peptide at 0.01, 0.1 or 1 ng/ml for 2 hours, then competitor biotinylated ADOPep1 at 2 ug/ml, HRP-streptavidin
Method: Endothelial cells were incubated for 2 hours under normoxia conditions in the presence of increasing concentrations (0.01, 0.1 or 1 ng/ml) of peptides having the amino acid sequences corresponding to Motif A (HWRRP; SEQ ID NO:7), Motif B (HWRRA; SEQ ID NO:8), Motif C (AHLLP; SEQ ID NO:6) or non-biotinylated ADOPep1 (SEQ ID NO:2) and then were incubated for 1 hour with biotinylated ADOPep1 (2 μg/ml) and the binding of biotinylated ADOPep1 to endothelial cells was determined using HRP-streptavidin.

T1 sequence (P11021 19-654 limits assumed): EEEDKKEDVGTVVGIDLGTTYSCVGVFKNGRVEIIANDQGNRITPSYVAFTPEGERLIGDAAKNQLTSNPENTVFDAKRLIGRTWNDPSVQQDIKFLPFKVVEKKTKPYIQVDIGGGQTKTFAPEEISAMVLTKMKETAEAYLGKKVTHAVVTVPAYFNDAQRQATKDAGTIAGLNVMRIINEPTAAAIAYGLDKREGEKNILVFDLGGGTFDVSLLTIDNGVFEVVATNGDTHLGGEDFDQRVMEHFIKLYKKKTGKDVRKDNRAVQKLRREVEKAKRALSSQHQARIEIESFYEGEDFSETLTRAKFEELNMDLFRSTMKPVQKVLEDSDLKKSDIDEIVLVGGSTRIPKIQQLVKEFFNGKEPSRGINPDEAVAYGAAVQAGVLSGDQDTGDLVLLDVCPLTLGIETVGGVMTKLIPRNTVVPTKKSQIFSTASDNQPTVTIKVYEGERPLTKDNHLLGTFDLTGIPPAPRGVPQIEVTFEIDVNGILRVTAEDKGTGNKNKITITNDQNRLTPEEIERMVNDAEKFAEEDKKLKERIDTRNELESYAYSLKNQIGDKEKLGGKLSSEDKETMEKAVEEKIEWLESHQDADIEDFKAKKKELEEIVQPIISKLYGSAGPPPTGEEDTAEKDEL

Binder | percent inhibition of binding of anti-GRP78 antibody [1] [%] | binding result [2]
ENFLHWRRAHLL [ADOPep2] | ≤ 50 | –
HWRRA (also called peptide motif B) [Motif B peptide (HWRRA)] | – | binds
B1 | ≤ 50 | –
AVTLENFLHWRR [ADOPep3] | ≤ 50 | –
